Experimental data reported in patent publication US6828106 (dated 2004).
Where no end group is shown, it is not given here. fluorescein or rhodamine = not defined here

What was measured:
[1] = target: the molecule itself; experiment: FRET between the fluorescein- and rhodamine-labelled forms of the same peptide (homodimer)
[2] = target: T1, peptide C labelled with rhodamine (CR) (not fully specified; N-terminal acetyl; C-terminal amide; labelled with rhodamine (or vice versa with fluorescein)); experiment: FRET between fluorescein- and rhodamine-labelled peptides
T1 construct: Artificial designer peptide, one partner of a heterodimeric coiled coil
T1 peptide: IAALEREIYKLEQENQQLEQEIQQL

[3] = target: the molecule itself; experiment: FRET (fluorescein/rhodamine) and fluorescence polarization (fluorescein/biotin), 6 µM total peptide, 6:1
[4] = target: T2, reporter peptide 1 (Example 10), labeled with fluorescein (labeled with fluorescein (site not stated)); experiment: FRET (fluorescein/rhodamine), 5 µM total peptide, 1:1
T2 construct: Heterodimer partner in the thrombin assay
T2 peptide: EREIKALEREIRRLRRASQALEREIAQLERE

[5] = target: T3, peptide 1 (Example 8), labeled with fluorescein (labeled with fluorescein (site not stated)); experiment: FRET (fluorescein/rhodamine) and fluorescence polarization (fluorescein/biotin with streptavidin), 6 µM total peptide, 1:1
T3 construct: Heterodimer partner in the chymotrypsin assays
T3 peptide: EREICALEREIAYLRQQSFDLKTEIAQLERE

B1: Peptide 4 (Example 5, caspase 2, 3, 7 site) (peptide)
peptide: RMKQLEDKVEELLDENDHLENEVACLKKLVGER
modifications: also: fluorescein or rhodamine label, site not given here
notes: GCN4-derived homodimeric reporter; Both labelled forms are written as one molecule
[1]
  binding result: binds

B2: peptide B labelled with fluorescein (BF) (peptide)
peptide: IAALRERICYLRERNQQLRQRIQQL
modifications: not fully specified; also: fluorescein label, site not given here
notes: Artificial designer peptide, one partner of a heterodimeric coiled coil
[2]
  binding result: binds

B3: reporter peptide (Example 9, TEV) (peptide)
peptide: KGRMRCLEDRVENLYSQSYHLENEVARLRRLVGELAAK
modifications: not fully specified; also: homodimer
notes: Forms a homodimer; All labelled forms are written as one molecule (6:1 ratio R:F or biotin:F)
[3]
  binding result: binds

B4: reporter peptide 2 (Example 10), labeled with rhodamine (peptide)
peptide: LRQRIQCLRYRIRRLRRASQALRQRIAQLKQR
modifications: also: rhodamine label, site not given here
notes: Heterodimer partner in the thrombin assay
[4]
  binding result: binds

B5: Peptide 2 (Example 3, TEV protease cleavage site) (peptide)
peptide: RMKQLEDKVENLYSQSYHLENEVAC(fluorescein or rhodamine)LKKLVGER
modifications: reading uncertain
notes: GCN4-derived homodimeric reporter; The fluorescein- and rhodamine-labelled forms are written as one molecule
[1]
  binding result: binds

B6: peptide 2 (Example 8), labeled with rhodamine (FRET) or biotin (FP) (peptide)
peptide: LRQRIQCLRQKIAYLRQQSFDLKTQIAQLRQR
modifications: also: rhodamine or biotin label, site not given here
notes: Heterodimer partner in the chymotrypsin assays; Both labelled forms are written as one molecule
[5]
  binding result: binds
